B1: Compound 46 (peptide)
peptide: Ac-ESSAICIWQDWGAHRCT-NH2
modifications: disulfide 6-16
SMILES: CC[C@H](C)[C@H](NC(=O)[C@H](C)NC(=O)[C@H](CO)NC(=O)[C@H](CO)NC(=O)[C@H](CCC(=O)O)NC(C)=O)C(=O)N[C@H]1CSSC[C@@H](C(=O)N[C@H](C(N)=O)[C@@H](C)O)NC(=O)[C@H](CCCNC(=N)N)NC(=O)[C@H](Cc2c[nH]cn2)NC(=O)[C@H](C)NC(=O)CNC(=O)[C@H](Cc2c[nH]c3ccccc23)NC(=O)[C@H](CC(=O)O)NC(=O)[C@H](CCC(N)=O)NC(=O)[C@H](Cc2c[nH]c3ccccc23)NC(=O)[C@H]([C@@H](C)CC)NC1=O
B2: Compound 39 (peptide)
peptide: Ac-ICIWQDWGEHRCTEGK-NH2
modifications: disulfide 2-12
SMILES: CC[C@H](C)[C@H](NC(C)=O)C(=O)N[C@H]1CSSC[C@@H](C(=O)N[C@H](C(=O)N[C@@H](CCC(=O)O)C(=O)NCC(=O)N[C@@H](CCCCN)C(N)=O)[C@@H](C)O)NC(=O)[C@H](CCCNC(=N)N)NC(=O)[C@H](Cc2c[nH]cn2)NC(=O)[C@H](CCC(=O)O)NC(=O)CNC(=O)[C@H](Cc2c[nH]c3ccccc23)NC(=O)[C@H](CC(=O)O)NC(=O)[C@H](CCC(N)=O)NC(=O)[C@H](Cc2c[nH]c3ccccc23)NC(=O)[C@H]([C@@H](C)CC)NC1=O
B3: Compound 47 (peptide)
peptide: Ac-ICIWQDWGAHRCTGAES-NH2
modifications: disulfide 2-12
SMILES: CC[C@H](C)[C@H](NC(C)=O)C(=O)N[C@H]1CSSC[C@@H](C(=O)N[C@H](C(=O)NCC(=O)N[C@@H](C)C(=O)N[C@@H](CCC(=O)O)C(=O)N[C@@H](CO)C(N)=O)[C@@H](C)O)NC(=O)[C@H](CCCNC(=N)N)NC(=O)[C@H](Cc2c[nH]cn2)NC(=O)[C@H](C)NC(=O)CNC(=O)[C@H](Cc2c[nH]c3ccccc23)NC(=O)[C@H](CC(=O)O)NC(=O)[C@H](CCC(N)=O)NC(=O)[C@H](Cc2c[nH]c3ccccc23)NC(=O)[C@H]([C@@H](C)CC)NC1=O
B4: Compound 41 (peptide)
peptide: Ac-SAICIWQDWGEHRC[Sar]E-NH2
modifications: disulfide 4-14
SMILES: CC[C@H](C)[C@H](NC(=O)[C@H](C)NC(=O)[C@H](CO)NC(C)=O)C(=O)N[C@H]1CSSC[C@@H](C(=O)N(C)CC(=O)N[C@@H](CCC(=O)O)C(N)=O)NC(=O)[C@H](CCCNC(=N)N)NC(=O)[C@H](Cc2c[nH]cn2)NC(=O)[C@H](CCC(=O)O)NC(=O)CNC(=O)[C@H](Cc2c[nH]c3ccccc23)NC(=O)[C@H](CC(=O)O)NC(=O)[C@H](CCC(N)=O)NC(=O)[C@H](Cc2c[nH]c3ccccc23)NC(=O)[C@H]([C@@H](C)CC)NC1=O
B5: Compound 44 (peptide)
peptide: Ac-EGSAICIWQDWGEHRC[Sar]EGE-NH2
modifications: disulfide 6-16
SMILES: CC[C@H](C)[C@H](NC(=O)[C@H](C)NC(=O)[C@H](CO)NC(=O)CNC(=O)[C@H](CCC(=O)O)NC(C)=O)C(=O)N[C@H]1CSSC[C@@H](C(=O)N(C)CC(=O)N[C@@H](CCC(=O)O)C(=O)NCC(=O)N[C@@H](CCC(=O)O)C(N)=O)NC(=O)[C@H](CCCNC(=N)N)NC(=O)[C@H](Cc2c[nH]cn2)NC(=O)[C@H](CCC(=O)O)NC(=O)CNC(=O)[C@H](Cc2c[nH]c3ccccc23)NC(=O)[C@H](CC(=O)O)NC(=O)[C@H](CCC(N)=O)NC(=O)[C@H](Cc2c[nH]c3ccccc23)NC(=O)[C@H]([C@@H](C)CC)NC1=O
B6: Compound 38 (peptide)
peptide: Ac-EKGICIWQDWGEHRCTEKP-NH2
modifications: disulfide 5-15
SMILES: CC[C@H](C)[C@H](NC(=O)CNC(=O)[C@H](CCCCN)NC(=O)[C@H](CCC(=O)O)NC(C)=O)C(=O)N[C@H]1CSSC[C@@H](C(=O)N[C@H](C(=O)N[C@@H](CCC(=O)O)C(=O)N[C@@H](CCCCN)C(=O)N2CCC[C@H]2C(N)=O)[C@@H](C)O)NC(=O)[C@H](CCCNC(=N)N)NC(=O)[C@H](Cc2c[nH]cn2)NC(=O)[C@H](CCC(=O)O)NC(=O)CNC(=O)[C@H](Cc2c[nH]c3ccccc23)NC(=O)[C@H](CC(=O)O)NC(=O)[C@H](CCC(N)=O)NC(=O)[C@H](Cc2c[nH]c3ccccc23)NC(=O)[C@H]([C@@H](C)CC)NC1=O
B7: Compound 51 (peptide)
peptide: Ac-ICI[Trp(1-Me)]QDWGEHRCTGAES-NH2
modifications: disulfide 2-12
SMILES: CC[C@H](C)[C@H](NC(C)=O)C(=O)N[C@H]1CSSC[C@@H](C(=O)N[C@H](C(=O)NCC(=O)N[C@@H](C)C(=O)N[C@@H](CCC(=O)O)C(=O)N[C@@H](CO)C(N)=O)[C@@H](C)O)NC(=O)[C@H](CCCNC(=N)N)NC(=O)[C@H](Cc2c[nH]cn2)NC(=O)[C@H](CCC(=O)O)NC(=O)CNC(=O)[C@H](Cc2c[nH]c3ccccc23)NC(=O)[C@H](CC(=O)O)NC(=O)[C@H](CCC(N)=O)NC(=O)[C@H](Cc2cn(C)c3ccccc23)NC(=O)[C@H]([C@@H](C)CC)NC1=O
B8: Compound 42 (peptide)
peptide: Ac-SAICIWQDWGEHRCTEG-NH2
modifications: disulfide 4-14
SMILES: CC[C@H](C)[C@H](NC(=O)[C@H](C)NC(=O)[C@H](CO)NC(C)=O)C(=O)N[C@H]1CSSC[C@@H](C(=O)N[C@H](C(=O)N[C@@H](CCC(=O)O)C(=O)NCC(N)=O)[C@@H](C)O)NC(=O)[C@H](CCCNC(=N)N)NC(=O)[C@H](Cc2c[nH]cn2)NC(=O)[C@H](CCC(=O)O)NC(=O)CNC(=O)[C@H](Cc2c[nH]c3ccccc23)NC(=O)[C@H](CC(=O)O)NC(=O)[C@H](CCC(N)=O)NC(=O)[C@H](Cc2c[nH]c3ccccc23)NC(=O)[C@H]([C@@H](C)CC)NC1=O
B9: Compound 40 (peptide)
peptide: Ac-GSAICIWQDWGEHRC[Sar]E-NH2
modifications: disulfide 5-15
SMILES: CC[C@H](C)[C@H](NC(=O)[C@H](C)NC(=O)[C@H](CO)NC(=O)CNC(C)=O)C(=O)N[C@H]1CSSC[C@@H](C(=O)N(C)CC(=O)N[C@@H](CCC(=O)O)C(N)=O)NC(=O)[C@H](CCCNC(=N)N)NC(=O)[C@H](Cc2c[nH]cn2)NC(=O)[C@H](CCC(=O)O)NC(=O)CNC(=O)[C@H](Cc2c[nH]c3ccccc23)NC(=O)[C@H](CC(=O)O)NC(=O)[C@H](CCC(N)=O)NC(=O)[C@H](Cc2c[nH]c3ccccc23)NC(=O)[C@H]([C@@H](C)CC)NC1=O
B10: Compound 45 (peptide)
peptide: Ac-EGSAFCIWQDWGEHRC[Sar]E-NH2
modifications: disulfide 6-16
SMILES: CC[C@H](C)[C@@H]1NC(=O)[C@@H](NC(=O)[C@H](Cc2ccccc2)NC(=O)[C@H](C)NC(=O)[C@H](CO)NC(=O)CNC(=O)[C@H](CCC(=O)O)NC(C)=O)CSSC[C@@H](C(=O)N(C)CC(=O)N[C@@H](CCC(=O)O)C(N)=O)NC(=O)[C@H](CCCNC(=N)N)NC(=O)[C@H](Cc2c[nH]cn2)NC(=O)[C@H](CCC(=O)O)NC(=O)CNC(=O)[C@H](Cc2c[nH]c3ccccc23)NC(=O)[C@H](CC(=O)O)NC(=O)[C@H](CCC(N)=O)NC(=O)[C@H](Cc2c[nH]c3ccccc23)NC1=O

Positions of bridges follow the written chain, without caps; N, C: chain ends. Non-standard residues stand in square brackets, D forms with d. Trp(1-Me) = Cn1cc(C[C@H](N)C(=O)O)c2ccccc21; Sar = CNCC(=O)O

The target of this assay is Human C3 (Complement tech cat #A113c) (human, UniProt P01024 23-1663). The assay can be described thus: cell-based or functional assay.
Chain of Human C3 (Complement tech cat #A113c) (P01024 23-1663 limits assumed): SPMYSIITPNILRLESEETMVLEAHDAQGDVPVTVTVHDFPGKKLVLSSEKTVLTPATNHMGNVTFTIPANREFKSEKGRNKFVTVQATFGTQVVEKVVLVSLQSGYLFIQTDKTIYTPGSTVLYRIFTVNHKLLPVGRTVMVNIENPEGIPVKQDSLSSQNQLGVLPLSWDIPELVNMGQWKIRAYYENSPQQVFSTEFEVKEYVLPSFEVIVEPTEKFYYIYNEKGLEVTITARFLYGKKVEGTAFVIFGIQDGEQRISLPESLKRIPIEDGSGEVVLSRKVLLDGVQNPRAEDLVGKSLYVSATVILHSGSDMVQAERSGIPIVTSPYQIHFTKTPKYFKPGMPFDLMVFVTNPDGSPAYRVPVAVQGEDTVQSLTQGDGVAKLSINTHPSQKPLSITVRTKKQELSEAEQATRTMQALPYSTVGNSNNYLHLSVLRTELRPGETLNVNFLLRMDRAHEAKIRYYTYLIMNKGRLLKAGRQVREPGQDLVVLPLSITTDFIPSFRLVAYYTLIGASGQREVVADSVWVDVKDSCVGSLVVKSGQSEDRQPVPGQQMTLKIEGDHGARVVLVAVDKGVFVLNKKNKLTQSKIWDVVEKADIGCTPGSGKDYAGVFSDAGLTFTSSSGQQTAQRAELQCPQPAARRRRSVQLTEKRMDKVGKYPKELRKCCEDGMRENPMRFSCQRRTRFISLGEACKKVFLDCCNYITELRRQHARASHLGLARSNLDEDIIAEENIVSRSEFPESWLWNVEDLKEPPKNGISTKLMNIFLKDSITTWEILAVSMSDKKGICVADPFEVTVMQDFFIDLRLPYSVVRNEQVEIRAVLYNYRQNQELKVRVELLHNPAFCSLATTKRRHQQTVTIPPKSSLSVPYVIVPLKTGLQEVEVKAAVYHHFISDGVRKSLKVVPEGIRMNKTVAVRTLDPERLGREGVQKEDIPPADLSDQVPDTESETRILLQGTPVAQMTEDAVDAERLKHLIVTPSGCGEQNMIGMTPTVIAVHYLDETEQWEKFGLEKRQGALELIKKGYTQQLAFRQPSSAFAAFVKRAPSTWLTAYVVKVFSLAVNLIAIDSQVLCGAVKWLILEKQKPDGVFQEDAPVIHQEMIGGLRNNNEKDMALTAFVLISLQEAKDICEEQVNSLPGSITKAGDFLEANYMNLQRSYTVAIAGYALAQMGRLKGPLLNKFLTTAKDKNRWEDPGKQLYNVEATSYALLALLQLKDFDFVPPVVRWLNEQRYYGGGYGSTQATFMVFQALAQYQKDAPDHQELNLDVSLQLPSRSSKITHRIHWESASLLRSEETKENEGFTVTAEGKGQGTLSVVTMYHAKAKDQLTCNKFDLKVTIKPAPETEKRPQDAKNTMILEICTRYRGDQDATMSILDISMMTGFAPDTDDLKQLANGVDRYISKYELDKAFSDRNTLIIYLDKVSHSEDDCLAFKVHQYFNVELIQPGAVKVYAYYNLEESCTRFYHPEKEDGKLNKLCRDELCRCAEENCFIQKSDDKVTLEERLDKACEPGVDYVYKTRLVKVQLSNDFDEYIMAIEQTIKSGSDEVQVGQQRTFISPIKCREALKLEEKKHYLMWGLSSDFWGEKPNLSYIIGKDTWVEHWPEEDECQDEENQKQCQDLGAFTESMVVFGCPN
As to B1, the “inhibition of hemolysis IC50” value is below 100 nM.
For B2, the “inhibition of hemolysis IC50” value was below 100 nM.
The same measure for B3: below 100 nM; for B4: below 250 nM.
For the molecule B5, the “inhibition of hemolysis IC50” value is below 250 nM.
For the molecule B6, the “inhibition of hemolysis IC50” value is below 250 nM.
The same measure for B7: below 100 nM.
In the case of B8 it was below 250 nM.
Regarding B9, the “inhibition of hemolysis IC50” value was below 250 nM.
In the case of B10 it was below 100 nM.

These data come from patent publication US11965039B2, “Compstatin analogues and their medical uses” (priority 2018, dated 2024).
